{"source": "paper PMC7316351", "about": "“Cancer-associated mutations in the iron-sulfur domain of FANCJ affect G-quadruplex metabolism”", "binders": {"B1": {"name": "Y-structure (XO1/sDO1) (dsDNA)", "DNA 1": "GACGCTGCCGAATTCTACCAGTGCCTTGCTAGGACATCTTTG", "DNA 2": "TTTTTTTTTTTTTTTTTTTTTTTTTTTTTTTTTTTTGGTAGAATTCGGCAGCGT"}}, "key": {"FANCJ K52R": {"target": "T1, FANCJ K52R (UniProt Q9BX63 1-1249, K52R)", "T1 sequence": "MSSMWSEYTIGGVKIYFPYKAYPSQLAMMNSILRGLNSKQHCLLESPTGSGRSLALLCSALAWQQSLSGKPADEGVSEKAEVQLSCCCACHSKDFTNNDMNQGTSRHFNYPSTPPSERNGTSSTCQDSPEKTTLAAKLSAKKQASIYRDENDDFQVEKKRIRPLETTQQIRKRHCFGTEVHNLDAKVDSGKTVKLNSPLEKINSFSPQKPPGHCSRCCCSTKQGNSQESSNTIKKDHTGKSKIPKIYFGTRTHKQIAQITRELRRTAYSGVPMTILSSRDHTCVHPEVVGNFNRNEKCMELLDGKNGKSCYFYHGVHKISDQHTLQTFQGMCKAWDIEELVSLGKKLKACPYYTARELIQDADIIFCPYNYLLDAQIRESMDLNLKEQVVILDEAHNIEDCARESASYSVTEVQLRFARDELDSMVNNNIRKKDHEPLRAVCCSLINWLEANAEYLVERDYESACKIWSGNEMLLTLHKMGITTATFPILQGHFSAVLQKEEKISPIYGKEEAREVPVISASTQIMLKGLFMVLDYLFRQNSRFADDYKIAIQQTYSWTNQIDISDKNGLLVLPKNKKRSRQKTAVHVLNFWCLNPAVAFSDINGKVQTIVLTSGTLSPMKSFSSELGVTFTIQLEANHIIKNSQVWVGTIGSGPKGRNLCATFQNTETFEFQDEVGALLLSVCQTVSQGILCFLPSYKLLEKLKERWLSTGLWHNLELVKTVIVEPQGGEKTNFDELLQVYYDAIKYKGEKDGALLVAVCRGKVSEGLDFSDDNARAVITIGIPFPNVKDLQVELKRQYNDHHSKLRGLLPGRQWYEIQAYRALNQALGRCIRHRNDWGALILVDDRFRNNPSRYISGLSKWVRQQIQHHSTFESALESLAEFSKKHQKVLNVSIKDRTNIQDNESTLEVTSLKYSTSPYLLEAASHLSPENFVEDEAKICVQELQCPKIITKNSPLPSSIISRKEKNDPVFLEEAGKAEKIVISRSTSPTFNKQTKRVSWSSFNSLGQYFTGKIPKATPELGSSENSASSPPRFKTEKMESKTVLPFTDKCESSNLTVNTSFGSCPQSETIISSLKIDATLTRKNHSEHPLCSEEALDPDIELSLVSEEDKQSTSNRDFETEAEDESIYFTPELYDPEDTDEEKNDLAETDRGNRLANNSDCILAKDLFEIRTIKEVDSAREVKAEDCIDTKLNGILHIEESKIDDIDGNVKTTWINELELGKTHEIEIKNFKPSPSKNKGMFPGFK", "experiment": "EMSA; 10/40/70 nM protein, 5 nM DNA, no ATP; EMSA: 15 mM Na-phosphate pH 7.4, 45 mM NaCl, 3% glycerol, 40 mM Tris-HCl pH 7.4, 25 mM KCl, 100 ng/ul BSA, 2 mM DTT, 0.1 mM EDTA; 30 min at 25 C; 5% PAGE in 1x", "settings": "protein: recombinant; tags: N-terminal Flag; label: 5'-FAM on strand 1"}, "FANCJ M299I": {"target": "T2, FANCJ M299I (UniProt Q9BX63 1-1249, M299I)", "T2 sequence": "T1 sequence with R52K, M299I", "experiment": "EMSA; 10/40/70 nM protein, 5 nM DNA, no ATP; wild-type level of binding; EMSA: 15 mM Na-phosphate pH 7.4, 45 mM NaCl, 3% glycerol, 40 mM Tris-HCl pH 7.4, 25 mM KCl, 100 ng/ul BSA, 2 mM DTT, 0.1 mM EDTA; 30 min at 25 C; 5% PAGE in 1x", "settings": "protein: recombinant; tags: N-terminal Flag; label: 5'-FAM on strand 1"}}, "note": "Substitutions are numbered along the chain they refer to."}
{"binder": "B1", "values": [{"measurement": "binding result", "setting": "FANCJ K52R", "result": "binds"}, {"measurement": "binding result", "setting": "FANCJ M299I", "result": "binds"}]}
